Assays:
[1] = target: T1, Recombinant wild-type InlC with a C-terminal 6xHis tag (Listeria monocytogenes, UniProt P71451 35-297); assay: SPR
T1 sequence (looked up): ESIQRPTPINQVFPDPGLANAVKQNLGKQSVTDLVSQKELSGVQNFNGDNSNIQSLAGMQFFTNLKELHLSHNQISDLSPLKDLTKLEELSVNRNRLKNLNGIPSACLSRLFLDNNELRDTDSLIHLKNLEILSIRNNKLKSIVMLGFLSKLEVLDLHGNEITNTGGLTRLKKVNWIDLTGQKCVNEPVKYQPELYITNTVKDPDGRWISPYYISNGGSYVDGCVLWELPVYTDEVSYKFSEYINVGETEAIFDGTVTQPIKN

[2] = target: T2, Recombinant InlC.K173A with a C-terminal 6xHis tag (Listeria monocytogenes, UniProt P71451 35-297, K173A); assay: SPR
T2 sequence (looked up): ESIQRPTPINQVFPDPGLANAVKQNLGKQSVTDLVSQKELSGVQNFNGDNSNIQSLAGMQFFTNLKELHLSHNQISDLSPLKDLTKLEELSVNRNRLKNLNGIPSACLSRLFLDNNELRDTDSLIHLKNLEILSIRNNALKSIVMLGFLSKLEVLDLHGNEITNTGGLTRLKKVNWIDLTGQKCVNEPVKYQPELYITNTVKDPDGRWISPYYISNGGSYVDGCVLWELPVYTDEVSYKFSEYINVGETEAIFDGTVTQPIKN

B1: SH36 protein of Tuba linked to the biosensor chip (domain or fragment, human, UniProt Q6XZF7 1513-1577, looked up)
chain: EGNQVYFAVYTFKARNPNELSVSANQKLKILEFKDVTGNTEWWLAEVNGKKGYVPSNYIRKTEYT
Kd [1]: 9 ± 3.5 µM
Kd [2]: 58 ± 12.3 µM

Source: PMC2755649 (Nature cell biology, 2009)
